Data from the DeepSol protein solubility set.

Assay: soluble on expression in E. coli; label from the status in PepcDB or PDB records

Row | Sequence | soluble on expression in E. coli
1 | SLRAERLTSRVKALFSVLNYERARRPGLLGASVLGLDDIHRAWRTFVLRVRAQDPPPELYFVKVDVTGAYDTIPQDRLTEVIASIIKPQNTYCVRRYAVVQKAAHGHVRKAFKSHVSTLTDLQPYMRQFVAHLQETSPLRDAVVIEQSSSLNEASSGLFDVFLRFMCHHAVRIRGKSYVQCQGIPQGSILSTLLCSLCYGDMENKLFAGIRRDGLLLRLVDDFLLVTPHLTHAKTFLRTLVRGVPEYGCVVNLRKTVVNFPVEDEALGGTAFVQMPAHGLFPWCGLLLDTRTLEVQSDYSSYARTSIRASLTFNRGFKAGRNMRRKLFGVLRLKCHSLFLDLQVNSLQTVCTNIYKILLLQAYRFHACVLQLPFHQQVWKNPTFFLRVISDTASLCYSILKAKNAGMSLGAKGAAGPLPSEAVQWLCHQAFLLKLTRHRVTYVPLLGSLRTAQTQLSRKLPGTTLTALEAAANPALPSDFKTILDEG | not soluble
2 | MSLDLKRLKGSERVRKRVSVMMGSDDIRGCQHTLFEIVSNSIDRHRKGFGNYIKVIKHEDLSYTIIDHADGLPMDWNEKEHAYNWDLALKVLYAGDNYDANSTALGLNGLGLCSSQYASEFMEVISYKEDKKYTVKCKKGRPIDKETGEFICEDDDNLFTKEQGNRVLLVESNTENKTGTYIHYKPDLEVFTNIDISIDWINDKLDKQSMVNKGLKIEIYDEKEDRLYTHFYESGIKDYIKTISNDNNFSDVIYFTDKGKGRDKADKPEYDYNYEIALVFNNEINRLEYYHNSSELLQGGSTSDAISLAFTYAINEYAKNNNVFNKNESKIKFTDIQDSLICVISSFSTMTSYANQTKLSIDNKFIKDFTNQSLKEKLKLYFIENKLEADRIVNQILINKRANDKAEKSKIEIRNKEGHHHHHH | soluble
3 | MPSWREKHEKIVQSKILVIGAGGIGCELLKNLAVTGFRKVHVIDLDTIDISNLNRQFLFRKEHVSSSKAATATQVVKQFCPQIELTFDHDSIFEKKYNMEFFQAYDIVLNALDNRAARNYVNRMCHAANRPLIDSGSGGYFGQVSVIMRGKTECYECVDKPVQQTTYPGCTIRNTPSEHIHCTVWAKHVFNQLFGEVDIDDDVSPDMDAVDPDNTEAVTTEKEKEAMKEEPAPVGTRQWAESVDYDAAKVFDKLFLHDIEYLCKMEHLWKQRKRPSPLEFHTASSTGGEPQSLCDAQRDDTSIWTLSTCAKVFSTCIQELLEQIRAEPDVKLAFDKDHAIIMSFVAACANIRAKIFGIPMKSQFDIKAMAGNIIPAIASTNAIVAGIIVTEAVRVIEGSTVICNSSIATTQSNPRGRVRFYGFFN | not soluble
4 | MTASHGQAAAIPTVTLNDDNTLPVVGIGVGELSDSEAERSVSAALEAGYRLIDTAAAYGNEAAVGRAIAASGIPRDEIYVTTKLATPDQGFTSSQAAARASLERLGLDYVDLYLIHWPGGDTSKYVDSWGGLMKVKEDGIARSIGVCNFGAEDLETIVSLTYFTPAVNQIELHPLLNQAALREVNAGYNIVTEAYGPLGVGRLLDHPAVTAIAEAHGRTAAQVLLRWSIQLGNVVISRSANPERIASNLDVFGFELTADEMETLNGLDDGTRFRPDPATYTGS | soluble
5 | AVGNATQPLLVVEDSDEDFSTFQRLLQREGVVNPIYRCITGDQALDFLYQTGSYCNPDIAPRPAVILLDLNLPGTDGREVLQEIKQDEVLKKIPVVIMTTSSNPKDIEICYSYSISSYIVKPLEIDRLTETVQTFIKYWLDIVVLPEMG | soluble
6 | MGSDKIHHHHHHMQSNLVMFPIVEVVRPGTQVKETNSTDYEGAEQQFLLLLATEDLDDNLDRQAAIVSDFEQAVSRAINGAYKRECQDDLAHRFLQRILYRINRLNLFWFDDLRQYTNERSLYLSSCRNQIEAAWQKWELAQVDVAAIQKLDVKQALIDRADADLDPPLSAASRYIREEMSEAGYRQLLAIGSFDGLVEGSRLSRILGGAANEVQCTLVRVLLEEYGNGRLSRKHSTFFAQMLAEFGMNTTPEAYFDLVPWEVLACANHNFLLTERRRYYLRYSGGLTYFEVAGPAAYRNYLAAAQRLGLSNAAMGYWELHIREDERHGRWMLDDVALPLAQRYPDDAWELVLGYDQEKLMGDRAAEAVVRSTRQAESIN | not soluble
7 | GPGSMNRAESSANALGEEFVKNMNTALDIVESLVAKGEAQFAILASAKSTFCVGADIDQMYTVTDPAVAVQVPTVGHKLFNRIEQEKFPIVAAINGLALGGGFEMSLACHQRLMASTAKVGFPECLLGLLPGGGGTVRTQRLCGLTKTVQWIMTSKQIKPQEAKSAGACDVIIPADDRWNGEHRFYEGVRKWAGQYLSNKPARLSKRKNISLMDQVLENTTFGRRKVADETIKMLNKKTRGKYIAQYKALECIMYSATHSNQQGFDKECRGFAELLCSPEAKNQMSLYFLQEGMKKSADKTGVPKDKVMPVNRVGVIGAGVMGSGIVHYFAKNNIPVAVKDLTEESVKQGITNVRAEFERAVRRKRMVTAELDGKMALVTGGTTNEVFRDADVIVEAAVEVMDIKKKVIQQLEKDGILHSKSLFATNTSSLSLTEMQTVAKCPHNIVGMHFFNPVSKMPLVEVIKGKSTSTEAAAAIFNLALKTGKIPIIVNDGPGFLVNRILGVYMAEAGRLAVDERCHPACVDEAILAFGMPMGPFRLLDEVGLDVACHVGPVLANGLKSDRFSVSATISQMVADGYLGRKNRKGFYTYAAEGKEAGLNSAVLQKYLGEELSASISETEIVDRCVLLMVNEATRILDEGIAMSPEDVDTGMVWGTGFPPFRGGLLQYADHRGIANVVAALEQLQRKTKRDYFAPTETLKKMAIEGKRFFPTRPYVPYQERHGYPKVTY | not soluble
8 | MARNPEEAQRVVIPLGSEEALAFLGQADRNLKRLRSLFRTYLGDEVRLVSRGEQVEVLGPPEAVEKAERALRDLLALLRQGAELDEATLEQAVRLAAEGEGLYQATEPELELQLPGRLRPKTPGQKRYVEAIARHDITFGIGPAGTGKTYLAVAMAVSHLRARRVKRIILTRPAVEAGEKLGFLPGDIQAKVDPYLRPLYDALFDMIDAERFEQYLQSGIIEVAPLAFMRGRTLNDAFIILDEAQNTTPEQMKMFLTRMGFSSKMVITGDVTQIDLPKHQRSGLVEAIRILKGIEGIAFVHFKESDVVRHPLVARIIKAYEEAERGGGGAQ | soluble
9 | FFFTVAFLLVFSIAGLVEILPDFAKASRPTENLKPYSMLETAGRQLYIKESCNACHSQLVRPFKSETDRYGAYSLSGEYAYDRPFLWGSKRTGPDLHRVGDYRTTDWHENHMMDPTSVVPGSIMPAYKHMFKNAADIETAYAEAYTNKVVFGVPYDQPSGIKLGSFEEAKAAMFEEAKLIVEDMKNQDVKDALARGEIKEIVALIAYMNSLGQ | not soluble
10 | MGSDKIHHHHHHMKTLKGPAIFLAQFIGDTPPFDKLETMAAWVSSLGYAGVQMPTGGADSFFDLALAAESQTYCDDIAGLLAEYGLEITELSTHLQGQLVAVHPAYDELFDGFAPPELRGKPKERQAWAVEQVKAAAVASRRLGLKAHATFSGSLAWPYLYPWPQRPAGLIEEAFAELGRRWKPILDVFDENGVDAAYEIHPGEDLHDGATFERFLDEVGGHPRANILYDPSHFVLQQLDYLAYIDRYHERIKAFHVKDAEFRPSARSGVYGGYQGWVDRPGRFRSLGDGQVDFKAIFSKLAQYDYDGWAVLEWECALKHPEQGAAEGAPFIRDHIIRVTDKAFDDFASAGSEAGRNRRLLGL | not soluble
11 | MGSDKIHHHHHHMASYSLVESNSFGSENWCLKLQPSYKHGLLTGLSNGEIRLLDWSTGKSVQKIKASETAINDMKVIGSDFSAGHLVSSASIDAVKVFDIRTNDRIAQIQNEANSPFISLDSRHGLLACGTELQGIDAAVYIYDIRKWDTPLRSLIDSHHDDVTCIKFHPSDVNILLSGSTDGYTNIYDLKQDEEEDALHQVINYASIHSCGWLSPKRIFTLSHMETFAIHELNDKSDELKEPQPLDFGDVREIWNCDYVVDIYPGLIATGKTQENCGELCLLPFKDEKVDTENGIVIPHAHGDEVVRDIFIPAQHSNMLYSCGEDGCVKIWENKQGPLDIPENFWDYSKKMNVLGDDDREGSINLDEPLIIQKESVSTRPRKEKHKKAKKHSMKSRFKPY | not soluble
12 | CSKNRKAKAKPVTRGTGAGSRPRGQNKERPPPVPNPDYEPIRKGQRDLYSGLNQRAV | soluble
13 | MAHHHHHHMGTLEAQTQGPGSMSEPLLLQDRDERGVVTLTLNRPQAFNALSEAMLAALGEAFGTLAEDESVRAVVLAASGKAFCAGHDLKEMRAEPSREYYEKLFARCTDVMLAIQRLPAPVIARVHGIATAAGCQLVAMCDLAVATRDARFAVSGINVGLFCSTPGVALSRNVGRKAAFEMLVTGEFVSADDAKGLGLVNRVVAPKALDDEIEAMVSKIVAKPRAAVAMGKALFYRQIETDIESAYADAGTTMACNMMDPSALEGVSAFLEKRRPEWHTPQPSTA | soluble
14 | MKFSVLTLFPQLVWPYFEDSILKRALEKNLFELEVLNLRDFSANKYQKADHTLIGGGAGQILDPEMVENALHSVKNPKHTIFLSAVGKPFKQTDAMRLAQKKHVVLVCGRYEGFDERSIELGADEVFCIGDFILTGGELGALCLIDSIARHIQGVLGNAQSLENESFENHYLEAPNFANAVFKSKEINKIPAPLEYSKGNHAKIKQLKLDLSKLRTKFYRLDLFKQHKSLEHHHHHH | not soluble
15 | GMSVVDPSLIERIIRDDVRAMGAYHVPDSHGLVKLDAMENPYRLPPALRSELAARLGEVALNRYPVPSSEALRAKLKEVMQVPAGMEVLLGNGSDEIISMLALAAARPGAKVMAPVPGFVMYAMSAQFAGLEFVGVPLRADFTLDRGAMLAAMAEHQPAIVYLAYPNNPTGNLFDAADMEAIVRAAQGSVCRSLVVVDEAYQPFAQESWMSRLTDFGNLLVMRTVSKLGLAGIRLGYVAGDPQWLEQLDKVRPPYNVNVLTEATALFALEHVAVLDEQAAQLRAERSRVAEGMAAHGGVTVFPSAANFLLARVPDAAQTFDRLLARKVLIKNVSKMHPLLANCLRVTVSTPEENAQFLEAFAASLQD | soluble
16 | SLDSKTTVNINIPSGSSVSAIASILKKNDVIKSEKAFQYYVKYKGASGFQAGFYHLNKGMDLDAIIQKLTSGATGYAFQITVTEGAQLTQIAAAIADETKYSKKQVIAKLDDETFINQLKKEFPDTVTNDVFNKNIKHPLEGYLFPATYPFNDPDTSLEDIIKAMIKQTNSYVETYKSEMKKNKVSVHKLLTMASLIEEEATEKADRHKIASVFYNRLKKKMPLQTDPTVLYAAGKHKDRVLYKDLEIDSPYNTYKNTGLTPGPIANAGMSSWEAALHPDKTDYLYFLAKSNGEVVFTKTLKEHNKAKEKYISSKNEK | soluble
17 | MAHHHHHHMADVSADSDAQVELERLNDVIDKYTCQVEHIDNLLQELEEENNSDSVSRQIAEYQSALESHPENIPAEDALEVITRLENTLKIVQRRNHLLEKENGTQNRLLEERSNVLLNATKTFDHIVDVTGWHDKFLFDAEDLRSKVADIREMSNIEAVVQKELRVAQGIIKKKEAALRQLEELVEQGKEQEAVLNNVYNDIRVKERDCSEVEMQLVRLRKSVAKTDEALAVFDLHNQNASLAYMESDRDYLRDSVAEMKSTTRRQDNVIKAQLTRQQQLQTRLDVIMKSLREMKLDKKYERNIPKSALVPSASREEPEDVSKILPESECIPVPTYRLLHKNNEMLRVIVMRKNMLVLEKNAVIEALEAGLAKYGSALITTYKEQQDLRQNKDMELIELMDDLQQQHSNYLEKLEELRLQNAALKKKMYRSTRQHAPLKGTRPMR | not soluble
18 | MSSVPKNKDELELAINSIFPKLMVDYRSIPESKARKVGVEGNVKGTFISVSDTVAYLIGWGKLVLKWHRLKSQNQHVDFPETGYKWNQLGLLAESFHEEYRDWKYSDLLVELEFTINEILLLISSLSDHELYGVAWYEQWTLGRMIQFNTSSPMKNMRTKVRRFNREFTLEHHHHHH | not soluble
